The record followed here is US20210032299A1 (Eli Lilly, published 2021).

Starred links: 1 amine or outer side, 2 acyl side, 3 side chain; linkers in the order of their positions; H or OH if unused. Non-standard residues stand in square brackets, D forms with d. Groups on a side chain read outwards from the residue. No end group written: not given here. *: point of attachment. C20 diacid = O=C(O)CCCCCCCCCCCCCCCCCCC(=O)*; γGlu = O=C(O)[C@H](CCC(=O)[*:2])N[*:1]; αMeL = CC(C)C[C@](C)(N)C(=O)O; AEEA = NCCOCCOCC(=O)O; Aib = CC(C)(N)C(=O)O

The target of one experiment is T1, human glucagon receptor (human, UniProt P47871 26-477).
T1 construct: whole, on cells; Assayed as crude membranes of stably transfected HEK293 cells; also called hGcgR; GcgR
T1 sequence (P47871 26-477): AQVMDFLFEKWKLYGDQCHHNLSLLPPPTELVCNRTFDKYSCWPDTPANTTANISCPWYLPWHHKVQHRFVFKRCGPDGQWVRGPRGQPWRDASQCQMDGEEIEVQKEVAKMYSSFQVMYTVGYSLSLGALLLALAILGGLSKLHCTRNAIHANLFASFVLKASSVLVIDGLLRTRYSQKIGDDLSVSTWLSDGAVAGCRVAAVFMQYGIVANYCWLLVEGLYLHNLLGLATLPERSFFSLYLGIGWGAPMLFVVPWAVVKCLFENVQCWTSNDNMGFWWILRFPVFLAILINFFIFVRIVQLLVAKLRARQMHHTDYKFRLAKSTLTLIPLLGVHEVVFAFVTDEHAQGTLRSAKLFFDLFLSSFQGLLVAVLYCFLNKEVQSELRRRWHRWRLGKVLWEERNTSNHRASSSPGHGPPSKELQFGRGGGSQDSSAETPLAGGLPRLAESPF
In words: SPA, displacement of [125I]-Gcg from hGcgR membranes, 0.1% bacitracin. The procedure, abridged:
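Binding buffer: 25 mM HEPES pH 7.4, 2.5 mM CaCl₂, 1 mM MgCl₂, 0.003% Tween-20, protease inhibitors without EDTA. Counted by scintillation after 12 h incubation/settling at room temperature. Four-parameter nonlinear fit; Kᵢ given as geometric mean ± SEM of independent replicates run on different days.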

The next experiment addresses T2, human GLP-1 receptor (human, UniProt P43220 24-463).
T2 construct: whole, on cells; Assayed as crude membranes of stably transfected HEK293 cells; also called hGLP1R; hGLP-1R
In words: SPA, displacement of [125I]-GLP-1 from hGLP-1R membranes, 0.1% bacitracin. The method, boiled down:
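Binding buffer: 25 mM HEPES pH 7.4, 2.5 mM CaCl₂, 1 mM MgCl₂, 0.1% bacitracin, 0.003% Tween-20, protease inhibitors without EDTA. Four-parameter nonlinear regression; Kᵢ given as geometric mean ± SEM, n = independent replicates run on different days.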

Experiment [1] addresses T3, human glucose-dependent insulinotropic polypeptide (GIP) receptor (human, UniProt P48546 22-466).
T3 construct: whole, on cells; Assayed as crude membranes of stably transfected CHO cells; also called hGIPR; human GIP receptor
T3 sequence (looked up): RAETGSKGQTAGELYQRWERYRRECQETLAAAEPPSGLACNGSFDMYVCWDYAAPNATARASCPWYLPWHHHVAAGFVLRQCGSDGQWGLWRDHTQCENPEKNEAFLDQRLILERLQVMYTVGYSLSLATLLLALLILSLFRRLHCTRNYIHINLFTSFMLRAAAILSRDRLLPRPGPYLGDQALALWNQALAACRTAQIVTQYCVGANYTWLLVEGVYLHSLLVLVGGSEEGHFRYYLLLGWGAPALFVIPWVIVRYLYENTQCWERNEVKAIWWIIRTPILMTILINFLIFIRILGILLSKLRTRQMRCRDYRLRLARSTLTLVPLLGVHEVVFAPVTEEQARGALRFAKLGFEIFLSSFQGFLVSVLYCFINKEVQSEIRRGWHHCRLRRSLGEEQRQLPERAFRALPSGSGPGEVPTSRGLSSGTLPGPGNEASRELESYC
In words: SPA, displacement of [125I]-GIP from hGIPR membranes, 0.1% bacitracin.

B1: Example 53 (peptide)
peptide: Y[Aib]EGTFISDYSI[αMeL]LDKK([AEEA-AEEA-γGlu-C20 diacid])HQ[Aib]DFVEYLLAGGPSSGAPPPS-NH2
modifications: N-terminus assumed
SMILES: CC[C@H](C)[C@H](NC(=O)[C@H](Cc1ccccc1)NC(=O)[C@@H](NC(=O)CNC(=O)[C@H](CCC(=O)O)NC(=O)C(C)(C)NC(=O)[C@@H](N)Cc1ccc(O)cc1)[C@@H](C)O)C(=O)N[C@@H](CO)C(=O)N[C@@H](CC(=O)O)C(=O)N[C@@H](Cc1ccc(O)cc1)C(=O)N[C@@H](CO)C(=O)N[C@H](C(=O)N[C@@](C)(CC(C)C)C(=O)N[C@@H](CC(C)C)C(=O)N[C@@H](CC(=O)O)C(=O)N[C@@H](CCCCN)C(=O)N[C@@H](CCCCNC(=O)COCCOCCNC(=O)COCCOCCNC(=O)CC[C@H](NC(=O)CCCCCCCCCCCCCCCCCCC(=O)O)C(=O)O)C(=O)N[C@@H](Cc1c[nH]cn1)C(=O)N[C@@H](CCC(N)=O)C(=O)NC(C)(C)C(=O)N[C@@H](CC(=O)O)C(=O)N[C@@H](Cc1ccccc1)C(=O)N[C@H](C(=O)N[C@@H](CCC(=O)O)C(=O)N[C@@H](Cc1ccc(O)cc1)C(=O)N[C@@H](CC(C)C)C(=O)N[C@@H](CC(C)C)C(=O)N[C@@H](C)C(=O)NCC(=O)NCC(=O)N1CCC[C@H]1C(=O)N[C@@H](CO)C(=O)N[C@@H](CO)C(=O)NCC(=O)N[C@@H](C)C(=O)N1CCC[C@H]1C(=O)N1CCC[C@H]1C(=O)N1CCC[C@H]1C(=O)N[C@@H](CO)C(N)=O)C(C)C)[C@@H](C)CC
Consider B1, for which the values for the Ki (in the experiment with human glucagon receptor; in the experiment with human GLP-1 receptor; in experiment [1]) were 152 nM, 62.9 nM and 0.0184 nM, respectively.

B2: Example 54 (peptide)
peptide: Y[Aib]EGTFISDYSI[αMeL]LDKK([AEEA-AEEA-γGlu-C20 diacid])HQ[Aib]DFVEWLLAGGPSSGAPPPS-NH2
modifications: N-terminus assumed
SMILES: CC[C@H](C)[C@H](NC(=O)[C@H](Cc1ccccc1)NC(=O)[C@@H](NC(=O)CNC(=O)[C@H](CCC(=O)O)NC(=O)C(C)(C)NC(=O)[C@@H](N)Cc1ccc(O)cc1)[C@@H](C)O)C(=O)N[C@@H](CO)C(=O)N[C@@H](CC(=O)O)C(=O)N[C@@H](Cc1ccc(O)cc1)C(=O)N[C@@H](CO)C(=O)N[C@H](C(=O)N[C@@](C)(CC(C)C)C(=O)N[C@@H](CC(C)C)C(=O)N[C@@H](CC(=O)O)C(=O)N[C@@H](CCCCN)C(=O)N[C@@H](CCCCNC(=O)COCCOCCNC(=O)COCCOCCNC(=O)CC[C@H](NC(=O)CCCCCCCCCCCCCCCCCCC(=O)O)C(=O)O)C(=O)N[C@@H](Cc1c[nH]cn1)C(=O)N[C@@H](CCC(N)=O)C(=O)NC(C)(C)C(=O)N[C@@H](CC(=O)O)C(=O)N[C@@H](Cc1ccccc1)C(=O)N[C@H](C(=O)N[C@@H](CCC(=O)O)C(=O)N[C@@H](Cc1c[nH]c2ccccc12)C(=O)N[C@@H](CC(C)C)C(=O)N[C@@H](CC(C)C)C(=O)N[C@@H](C)C(=O)NCC(=O)NCC(=O)N1CCC[C@H]1C(=O)N[C@@H](CO)C(=O)N[C@@H](CO)C(=O)NCC(=O)N[C@@H](C)C(=O)N1CCC[C@H]1C(=O)N1CCC[C@H]1C(=O)N1CCC[C@H]1C(=O)N[C@@H](CO)C(N)=O)C(C)C)[C@@H](C)CC
As to B2, the Ki with human glucagon receptor amounted to 386 nM; with human GLP-1 receptor, 49.9 nM; in experiment [1], 0.0326 nM.

B3: Example 63 (peptide)
peptide: Y[Aib]EGTFISDYSI[αMeL]LDKK([AEEA-AEEA-γGlu-C20 diacid])HQ[Aib]EFVEYLLEQGPSSGAPPPS-NH2
modifications: N-terminus assumed
SMILES: CC[C@H](C)[C@H](NC(=O)[C@H](Cc1ccccc1)NC(=O)[C@@H](NC(=O)CNC(=O)[C@H](CCC(=O)O)NC(=O)C(C)(C)NC(=O)[C@@H](N)Cc1ccc(O)cc1)[C@@H](C)O)C(=O)N[C@@H](CO)C(=O)N[C@@H](CC(=O)O)C(=O)N[C@@H](Cc1ccc(O)cc1)C(=O)N[C@@H](CO)C(=O)N[C@H](C(=O)N[C@@](C)(CC(C)C)C(=O)N[C@@H](CC(C)C)C(=O)N[C@@H](CC(=O)O)C(=O)N[C@@H](CCCCN)C(=O)N[C@@H](CCCCNC(=O)COCCOCCNC(=O)COCCOCCNC(=O)CC[C@H](NC(=O)CCCCCCCCCCCCCCCCCCC(=O)O)C(=O)O)C(=O)N[C@@H](Cc1c[nH]cn1)C(=O)N[C@@H](CCC(N)=O)C(=O)NC(C)(C)C(=O)N[C@@H](CCC(=O)O)C(=O)N[C@@H](Cc1ccccc1)C(=O)N[C@H](C(=O)N[C@@H](CCC(=O)O)C(=O)N[C@@H](Cc1ccc(O)cc1)C(=O)N[C@@H](CC(C)C)C(=O)N[C@@H](CC(C)C)C(=O)N[C@@H](CCC(=O)O)C(=O)N[C@@H](CCC(N)=O)C(=O)NCC(=O)N1CCC[C@H]1C(=O)N[C@@H](CO)C(=O)N[C@@H](CO)C(=O)NCC(=O)N[C@@H](C)C(=O)N1CCC[C@H]1C(=O)N1CCC[C@H]1C(=O)N1CCC[C@H]1C(=O)N[C@@H](CO)C(N)=O)C(C)C)[C@@H](C)CC
Regarding B3, the Ki with human glucagon receptor worked out at 185 nM; in the experiment with human GLP-1 receptor, 327 nM; in experiment [1], 0.0248 nM.

B4: Example 65 (peptide)
peptide: Y[Aib]EGTFISDYSI[αMeL]LDKK([AEEA-AEEA-γGlu-C20 diacid])HQ[Aib]EFVEYLLEAGPSSGAPPPS-NH2
modifications: N-terminus assumed
SMILES: CC[C@H](C)[C@H](NC(=O)[C@H](Cc1ccccc1)NC(=O)[C@@H](NC(=O)CNC(=O)[C@H](CCC(=O)O)NC(=O)C(C)(C)NC(=O)[C@@H](N)Cc1ccc(O)cc1)[C@@H](C)O)C(=O)N[C@@H](CO)C(=O)N[C@@H](CC(=O)O)C(=O)N[C@@H](Cc1ccc(O)cc1)C(=O)N[C@@H](CO)C(=O)N[C@H](C(=O)N[C@@](C)(CC(C)C)C(=O)N[C@@H](CC(C)C)C(=O)N[C@@H](CC(=O)O)C(=O)N[C@@H](CCCCN)C(=O)N[C@@H](CCCCNC(=O)COCCOCCNC(=O)COCCOCCNC(=O)CC[C@H](NC(=O)CCCCCCCCCCCCCCCCCCC(=O)O)C(=O)O)C(=O)N[C@@H](Cc1c[nH]cn1)C(=O)N[C@@H](CCC(N)=O)C(=O)NC(C)(C)C(=O)N[C@@H](CCC(=O)O)C(=O)N[C@@H](Cc1ccccc1)C(=O)N[C@H](C(=O)N[C@@H](CCC(=O)O)C(=O)N[C@@H](Cc1ccc(O)cc1)C(=O)N[C@@H](CC(C)C)C(=O)N[C@@H](CC(C)C)C(=O)N[C@@H](CCC(=O)O)C(=O)N[C@@H](C)C(=O)NCC(=O)N1CCC[C@H]1C(=O)N[C@@H](CO)C(=O)N[C@@H](CO)C(=O)NCC(=O)N[C@@H](C)C(=O)N1CCC[C@H]1C(=O)N1CCC[C@H]1C(=O)N1CCC[C@H]1C(=O)N[C@@H](CO)C(N)=O)C(C)C)[C@@H](C)CC
As to B4, the values for the Ki (with human glucagon receptor; with human GLP-1 receptor; in experiment [1]) were 279 nM, 305 nM and 0.0316 nM, respectively.

B5: Example 64 (peptide)
peptide: Y[Aib]EGTFISDYSI[αMeL]LDKK([AEEA-AEEA-γGlu-C20 diacid])HQ[Aib]EFVEYLLETGPSSGAPPPS-NH2
modifications: N-terminus assumed
SMILES: CC[C@H](C)[C@H](NC(=O)[C@H](Cc1ccccc1)NC(=O)[C@@H](NC(=O)CNC(=O)[C@H](CCC(=O)O)NC(=O)C(C)(C)NC(=O)[C@@H](N)Cc1ccc(O)cc1)[C@@H](C)O)C(=O)N[C@@H](CO)C(=O)N[C@@H](CC(=O)O)C(=O)N[C@@H](Cc1ccc(O)cc1)C(=O)N[C@@H](CO)C(=O)N[C@H](C(=O)N[C@@](C)(CC(C)C)C(=O)N[C@@H](CC(C)C)C(=O)N[C@@H](CC(=O)O)C(=O)N[C@@H](CCCCN)C(=O)N[C@@H](CCCCNC(=O)COCCOCCNC(=O)COCCOCCNC(=O)CC[C@H](NC(=O)CCCCCCCCCCCCCCCCCCC(=O)O)C(=O)O)C(=O)N[C@@H](Cc1c[nH]cn1)C(=O)N[C@@H](CCC(N)=O)C(=O)NC(C)(C)C(=O)N[C@@H](CCC(=O)O)C(=O)N[C@@H](Cc1ccccc1)C(=O)N[C@H](C(=O)N[C@@H](CCC(=O)O)C(=O)N[C@@H](Cc1ccc(O)cc1)C(=O)N[C@@H](CC(C)C)C(=O)N[C@@H](CC(C)C)C(=O)N[C@@H](CCC(=O)O)C(=O)N[C@H](C(=O)NCC(=O)N1CCC[C@H]1C(=O)N[C@@H](CO)C(=O)N[C@@H](CO)C(=O)NCC(=O)N[C@@H](C)C(=O)N1CCC[C@H]1C(=O)N1CCC[C@H]1C(=O)N1CCC[C@H]1C(=O)N[C@@H](CO)C(N)=O)[C@@H](C)O)C(C)C)[C@@H](C)CC
For the molecule B5, the Ki with human glucagon receptor came to 196 nM; in the experiment with human GLP-1 receptor, 477 nM; in experiment [1], 0.022 nM.
